Data as given in publication PMC4533229 (Journal of Structural Biology, 2015).
One block for each binder: values may come before it.

B1: mouse R-spondin 2 Furin tandem repeat fragment (mRspo2_(Fu1-Fu2), I39-G144) (domain or fragment)
chain: ETGICKGCLSCSKDNGCSRCQQKLFFFLRREGMRQYGECLHSCPSGYYGHRAPDMNRCARCRIENCDSCFSKDFCTKCKVGFYLHRGRCFDECPDGFAPLDETMECVEGT
notes: residues left by the vector after removal of the signal peptide; mouse R-spondin 2, Fu1-Fu2, I39-G144; printed ends ICKGCL...MECVEG; vector residue before the His10 tag; not shown: His10, C-terminal, kept
B2: human LGR5 ectodomain variant (hLGR5_(ecto)), R32-S543 with the loop A488-H537 replaced by an NGNNGD linker (domain or fragment)
chain: ETGRGCPTHCHCEPDGRMLLRVDCSDLGLSELPSNLSVFTSYLDLSMNNISQLLPNPLPSLRFLEELRLAGNALTYIPKGAFTGLYSLKVLMLQNNQLRHVPTEALQNLRSLQSLRLDANHISYVPPSCFSGLHSLRHLWLDDNALTEIPVQAFRSLSALQAMTLALNKIHHIPDYAFGNLSSLVVLHLHNNRIHSLGKKCFDGLHSLETLDLNYNNLDEFPTAIRTLSNLKELGFHSNNIRSIPEKAFVGNPSLITIHFYDNPIQFVGRSAFQHLPELRTLTLNGASQITEFPDLTGTANLESLTLTGAQISSLPQTVCNQLPNLQVLDLSYNLLEDLPSFSVCQKLQKIDLRHNEIYEIKVDTFQQLLSLRSLNLAWNKIAIIHPNAFSTLPSLIKLDLSSNLLSSFPITGLHGLTHLKLTGNHALQSLISSENFPELKVIEMPYAYQCCAFGVCENNGNNGDSVQCSPSGT
notes: residues left by the vector pHLsec after removal of the signal peptide; human LGR5 ectodomain, R32 up to the residue before the replaced loop A488-H537; printed ends RGCPTH...FGVCEN; linker that replaces A488-H537; human LGR5 after the replaced loop; vector residues before the His10 tag; Cloned into pHLsec H10; not shown: His10, C-terminal, kept

Experiments:
[1] = target: B2; experiment: crystal structure; hLGR5_(ecto)–mRspo2_(Fu1-Fu2) complex from coexpression, 5.9 mg/ml; sitting drop; 25% (w/v) PEG 3350, 200 mM lithium sulphate, 100 mM bis-Tris pH 5.5; 2.2 Å; two copies of the complex in the asymmetric unit; conditions: both partners purified
[2] = target: B1; experiment: as above; conditions: both partners purified
[3] = target: the molecule itself; experiment: as above
[4] = target: the molecule itself; experiment: crystal structure; approximately stoichiometric amounts of the hLGR5_(ecto)–mRspo2_(Fu1-Fu2) complex and mZNRF3_(ecto) mixed in 10 mM Tris/HCl pH 9.0, 1000 mM NaCl, 1.3 mg/ml; crystals in 100 mM ammonium acetate, 600 mM NaCl, 50 mM MES pH 6.0, 5 mM MgSO4; 4.8 Å, anisotropic; 2:2:2 complex generated by crystallographic symmetry
[5] = target: T1, hLGR5_(ecto)–mRspo2_(Fu1-Fu2) complex, formed beforehand by coexpression (human | mouse, UniProt O75473 32-487; Q8BFU0 39-144); experiment: as above; conditions: both partners purified
T1 construct: as the chain of m1: vector residues; as the chain of m1: human LGR5 ectodomain, R32 up to the residue before the replaced loop A488-H537; printed ends RGCPTH...FGVCEN; as the chain of m1: linker that replaces A488-H537; as the chain of m1: human LGR5 after the replaced loop; as the chain of m1: vector residues before the His10 tag; as the chain of m2: vector residues; as the chain of m2: mouse …
T1 chain 1: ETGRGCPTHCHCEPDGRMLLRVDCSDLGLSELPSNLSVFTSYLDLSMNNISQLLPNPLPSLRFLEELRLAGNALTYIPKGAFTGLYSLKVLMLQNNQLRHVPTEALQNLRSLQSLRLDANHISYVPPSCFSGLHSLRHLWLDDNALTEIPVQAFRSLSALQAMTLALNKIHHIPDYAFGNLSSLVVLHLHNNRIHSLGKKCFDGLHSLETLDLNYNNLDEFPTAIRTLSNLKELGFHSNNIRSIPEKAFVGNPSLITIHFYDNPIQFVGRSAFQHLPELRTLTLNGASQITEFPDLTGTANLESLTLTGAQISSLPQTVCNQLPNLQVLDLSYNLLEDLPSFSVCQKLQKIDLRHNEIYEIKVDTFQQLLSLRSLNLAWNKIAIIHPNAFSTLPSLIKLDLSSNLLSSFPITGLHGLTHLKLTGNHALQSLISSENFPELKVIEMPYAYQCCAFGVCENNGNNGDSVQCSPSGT
T1 chain 2: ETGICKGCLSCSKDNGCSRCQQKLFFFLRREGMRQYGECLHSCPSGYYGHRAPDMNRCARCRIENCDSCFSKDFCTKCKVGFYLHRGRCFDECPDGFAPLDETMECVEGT

Binder: B1
- stoichiometry N [1]: 1

Binder: B2
- binding result [2]: binds
- stoichiometry N [3]: 2

- stoichiometry N [5]: 1
B3: mouse ZNRF3 ectodomain (mZNRF3_(ecto)) (domain or fragment, UniProt Q5SSZ7 53-216, looked up)
chain: KETAFVEVVLFESSPSGDYTTHTTGLTGRFSRAGAMLSAEGEIVQMHPLGLCNNNDEEDLYEYGWVGVVKLEQPELDPKPCLTVLGKAKRAVQRGATAVIFDVSENPEAIDQLNQGSEDPLKRPVVYVKGADAIKLMNIVNKQKVARARIQHLPPRQPTEYFDM
notes: mouse ZNRF3 ectodomain; chain C of PDB 4C99 was the search model; source: produced as described (Zebisch et al., 2013); large scale mammalian expression, purified
- stoichiometry N [4]: 2
